Measurements from PMC9491548, “The primary familial brain calcification-associated protein MYORG is an α-galactosidase with restricted substrate specificity” (PLoS Biology, 2022).
Values belong to the molecule of their own block, whether it stands above or below them.

What was measured:
[1] = biological target: T1, MYORG (myogenesis-regulating glycosidase) (Homo sapiens, UniProt Q6NSJ0)
T1 sequence (Q6NSJ0 80-714): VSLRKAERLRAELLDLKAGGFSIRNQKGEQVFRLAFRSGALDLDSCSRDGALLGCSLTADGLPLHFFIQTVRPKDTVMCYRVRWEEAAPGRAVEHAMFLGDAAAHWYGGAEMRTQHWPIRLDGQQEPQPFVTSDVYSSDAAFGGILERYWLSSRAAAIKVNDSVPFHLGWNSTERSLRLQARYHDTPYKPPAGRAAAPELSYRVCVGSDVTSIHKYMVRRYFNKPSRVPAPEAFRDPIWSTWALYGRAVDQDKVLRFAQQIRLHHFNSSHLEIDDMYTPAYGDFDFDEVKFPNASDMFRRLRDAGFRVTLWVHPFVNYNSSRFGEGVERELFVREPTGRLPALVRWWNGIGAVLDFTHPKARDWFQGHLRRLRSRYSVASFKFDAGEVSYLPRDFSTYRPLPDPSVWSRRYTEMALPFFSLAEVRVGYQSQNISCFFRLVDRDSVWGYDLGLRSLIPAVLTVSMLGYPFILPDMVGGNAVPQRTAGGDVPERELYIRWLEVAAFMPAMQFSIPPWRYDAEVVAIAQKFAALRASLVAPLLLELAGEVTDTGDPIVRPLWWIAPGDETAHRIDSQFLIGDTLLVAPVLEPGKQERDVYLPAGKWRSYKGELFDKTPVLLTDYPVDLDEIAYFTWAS

[2] = biological target: T1, MYORG (myogenesis-regulating glycosidase); experiment: ITC; crystal structure ([…] Å soak); thermal shift (ΔTm […] °C); inhibition of 4MU-Gal hydrolysis; assay type: binding; design: residues 80–714 (MYORGGH31)
[3] = biological target: myogenesis-regulating glycosidase (MYORG) residues 80-714, deglycosylated with EndoH (human); experiment: SEC-MALS; SEC-MALLS; Superdex S200 10/300 GL in 20 mM HEPES (pH 7.5), 200 mM NaCl; ambient temperature; 100 ul of 3 mg/ml MYORG injected; 0.5 ml/min
[4] = biological target: myogenesis-regulating glycosidase (MYORG) residues 80-714, glycosylated (human); experiment: as above
[5] = substrate: OC[C@H]1O[C@H](O[C@H]2[C@H](O)[C@@H](O)C(O)O[C@@H]2CO)[C@H](O)[C@@H](O)[C@H]1O; experiment: Michaelis–Menten kinetics with purified enzyme (glucose oxidase/HRP paired-enzyme assay); KM; assay type: biochemical, Homo sapiens; details: active site, −[…] and +[…] subsites

fluorogenic hydrolysis by purified enzyme; kcat/KM [1]: 7.247 ± 0.0637 M⁻¹ s⁻¹
Molecule: Cc1cc(=O)oc2cc(O[C@H]3O[C@H](CO)[C@H](O)[C@H](O)[C@H]3O)ccc12 [4MU-Gal]

stoichiometry N [4]: 2
Molecule: myogenesis-regulating glycosidase (MYORG) residues 80-714, glycosylated (domain or fragment)

The next lines start with the molecule.

Molecule: OC[C@H]1NC[C@H](O)[C@@H](O)[C@H]1O [DGJ, deoxygalactonojirimycin]
Kd [2]: 1.33 ± 0.45 µM

Molecule: myogenesis-regulating glycosidase (MYORG) residues 80-714, deglycosylated with EndoH (domain or fragment)
stoichiometry N [3]: 2

B1: MYORG (myogenesis-regulating glycosidase) (Homo sapiens) (protein)
chain: VSLRKAERLRAELLDLKAGGFSIRNQKGEQVFRLAFRSGALDLDSCSRDGALLGCSLTADGLPLHFFIQTVRPKDTVMCYRVRWEEAAPGRAVEHAMFLGDAAAHWYGGAEMRTQHWPIRLDGQQEPQPFVTSDVYSSDAAFGGILERYWLSSRAAAIKVNDSVPFHLGWNSTERSLRLQARYHDTPYKPPAGRAAAPELSYRVCVGSDVTSIHKYMVRRYFNKPSRVPAPEAFRDPIWSTWALYGRAVDQDKVLRFAQQIRLHHFNSSHLEIDDMYTPAYGDFDFDEVKFPNASDMFRRLRDAGFRVTLWVHPFVNYNSSRFGEGVERELFVREPTGRLPALVRWWNGIGAVLDFTHPKARDWFQGHLRRLRSRYSVASFKFDAGEVSYLPRDFSTYRPLPDPSVWSRRYTEMALPFFSLAEVRVGYQSQNISCFFRLVDRDSVWGYDLGLRSLIPAVLTVSMLGYPFILPDMVGGNAVPQRTAGGDVPERELYIRWLEVAAFMPAMQFSIPPWRYDAEVVAIAQKFAALRASLVAPLLLELAGEVTDTGDPIVRPLWWIAPGDETAHRIDSQFLIGDTLLVAPVLEPGKQERDVYLPAGKWRSYKGELFDKTPVLLTDYPVDLDEIAYFTWAS
notes: residues 80–714 (MYORGGH31)
Km [5]: 980 ± 7 µM
